These results are taken from patent US20240226230A1 (MAYO FOUNDATION FOR MEDICAL EDUCATION AND RESEARCH, published 2024).

One assay has as its target T1, Untagged KPNB1 (Homo sapiens (Human), UniProt Q14974 1-876).
T1 construct: KPNB1 amplified by PCR and cloned into pEGFP-C1 lacking the GFP tag; also called Wildtype KPNB1
The assay is described as follows: GFP-Trap IP from HEK293T lysates, western blot. The text has this:
(§1) FIGS. 29A-29C: Untagged KPNB1 interacts with both the RRM2 and PrLD of TDP-CTF. FIG. 29A) (Left) Lysates from HEK293T cells expressing GFP alone, or untagged KPNB1 with GFP, GFP-TDP-CTF or GFP-TDP43^WT were subjected to immunoprecipitation with GFP-Trap magnetic beads. Whole cell lysates (input) and immunoprecipitates (IP) were subjected to western blot analysis using indicated antibodies. (Right) Quantification of relative KPNB1 levels in IP normalized by KPNB1 levels in input. Statistical analysis was performed using one-way ANOVA and Bonferroni's post hoc test (**p<0.01, ***p<0.001, n=3). […] FIG. 29C) (Left) Lysates from HEK293T cells expressing GFP alone, or untagged KPNB1 with GFP, GFP-TDP-CTF, GFP-TDP-CTF^non-PrLD or GFP-TDP-PrLD were subjected to immunoprecipitation with GFP-Trap magnetic beads. Whole cell lysates (input) and immunoprecipitates (IP) were subjected to western blot analysis using indicated antibodies. (Right) Quantification of relative KPNB1 levels in IP normalized by KPNB1 levels in input. Statistical analysis was performed using one-way ANOVA and Bonferroni's post hoc test (***p<0.001, n=3).
(§2) FIGS. 31A-31C: The PrLD of TDP-43 interacts with FG-Nups and KPNB1. FIG. 31A) Immunofluorescence (IF) of HEK293T cells expressing GFP or GFP-TDP-PrLD and stained for endogenous Nup98 and Nup62. TDP-PrLD forms small cytoplasmic foci positive for Nup62. FIG. 31B) IF of HEK293T cells expressing GFP or GFP-TDP-PrLD and stained for endogenous KPNB1. KPNB1 colocalizes with TDP-PrLD foci in the cytoplasm. Hoechst staining was used to outline nuclei. Scale bar: 5 μm. FIG. 31C) Lysates from HEK293T cells expressing GFP or GFP-TDP-PrLD were subjected to immunoprecipitation with GFP-Trap magnetic beads. Whole cell lysates (input) and immunoprecipitates (IP) were subjected to western blot analysis using indicated antibodies. The PrLD of TDP-43 interacts with Nup62, Nup98 and KPNB1, but not with Ran.
(§3) HEK293T cells were seeded in 6-well plates and transfected for 48 hours. Cells were then lysed in IP Lysis buffer (Fisher) supplemented with a protease inhibitor cocktail (Roche), and were centrifuged at 15000 rpm for 20 minutes at 4° C. A small aliquot of the recovered supernatant was set aside (input).

The target of another assay is endogenous Ran (human, UniProt P62826 2-216). The assay is described as follows: GFP-Trap IP from HEK293T lysates, western blot.
Text: as §1, §2, §3
For orientation: A western blot detects proteins with antibodies after separation by electrophoresis.

The target of a further assay is T2, endogenous Nup98 (human, UniProt P52948 1-880).
T2 sequence (looked up): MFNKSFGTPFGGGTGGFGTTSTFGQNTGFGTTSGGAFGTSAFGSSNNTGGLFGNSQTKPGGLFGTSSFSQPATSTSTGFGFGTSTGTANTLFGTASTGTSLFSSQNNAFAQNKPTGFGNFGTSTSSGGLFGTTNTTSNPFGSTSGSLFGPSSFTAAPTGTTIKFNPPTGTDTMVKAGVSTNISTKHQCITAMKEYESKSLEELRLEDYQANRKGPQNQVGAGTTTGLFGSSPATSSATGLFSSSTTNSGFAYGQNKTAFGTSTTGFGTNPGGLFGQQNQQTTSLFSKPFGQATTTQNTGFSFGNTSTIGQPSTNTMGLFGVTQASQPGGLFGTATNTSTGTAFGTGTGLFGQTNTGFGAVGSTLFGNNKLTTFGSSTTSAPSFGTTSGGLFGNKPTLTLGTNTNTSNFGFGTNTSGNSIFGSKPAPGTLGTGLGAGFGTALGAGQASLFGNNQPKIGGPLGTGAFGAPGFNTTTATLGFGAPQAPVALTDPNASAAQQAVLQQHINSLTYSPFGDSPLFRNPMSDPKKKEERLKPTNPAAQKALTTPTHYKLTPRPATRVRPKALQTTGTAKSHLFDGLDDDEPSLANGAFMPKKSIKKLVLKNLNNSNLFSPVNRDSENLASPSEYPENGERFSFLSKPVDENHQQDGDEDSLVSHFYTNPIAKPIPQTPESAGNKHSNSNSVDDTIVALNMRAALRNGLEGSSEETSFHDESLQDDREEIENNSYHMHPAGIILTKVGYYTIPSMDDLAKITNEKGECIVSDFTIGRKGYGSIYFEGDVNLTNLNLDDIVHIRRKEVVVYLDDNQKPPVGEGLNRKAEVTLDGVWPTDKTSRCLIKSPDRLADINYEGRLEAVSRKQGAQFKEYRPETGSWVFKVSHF
The assay is described as follows: GFP-Trap IP from HEK293T lysates, western blot.
Text: as §1, §2, §3

For assay [1], the target named is T3, endogenous Nup62 (human, UniProt P37198 2-522).
T3 construct: Detected with anti-Nup62
T3 sequence (looked up): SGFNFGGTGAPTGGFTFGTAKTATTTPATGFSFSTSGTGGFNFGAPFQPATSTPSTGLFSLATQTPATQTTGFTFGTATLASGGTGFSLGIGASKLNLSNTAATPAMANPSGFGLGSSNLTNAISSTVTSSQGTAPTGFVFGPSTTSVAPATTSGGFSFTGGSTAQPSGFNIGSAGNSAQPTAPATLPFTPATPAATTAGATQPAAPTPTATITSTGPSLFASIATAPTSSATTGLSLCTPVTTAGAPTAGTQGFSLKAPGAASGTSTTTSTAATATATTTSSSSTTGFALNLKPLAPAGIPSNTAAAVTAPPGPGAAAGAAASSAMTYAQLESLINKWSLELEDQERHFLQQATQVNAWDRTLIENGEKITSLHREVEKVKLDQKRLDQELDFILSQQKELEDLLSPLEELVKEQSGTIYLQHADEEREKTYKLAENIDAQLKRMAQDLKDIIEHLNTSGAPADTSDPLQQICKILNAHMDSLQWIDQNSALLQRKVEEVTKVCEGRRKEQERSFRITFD
The assay is described as follows: co-localisation by immunofluorescence in HEK293T cells (not a direct binding assay).
Text: as §2

For the next assay, the target named is T4, endogenous KPNB1 (human, UniProt Q14974 1-876).
T4 construct: Endogenous protein detected with anti-KPNB1
The description is as above.
Text: as §2

In the next assay the target is T5, Nup62-mCherry (UniProt P37198 1-522).
T5 construct: mCherry replaced GFP in pNup62-EGFP3; also called mCherry-tagged Nup62; not shown: mCherry tag
T5 sequence: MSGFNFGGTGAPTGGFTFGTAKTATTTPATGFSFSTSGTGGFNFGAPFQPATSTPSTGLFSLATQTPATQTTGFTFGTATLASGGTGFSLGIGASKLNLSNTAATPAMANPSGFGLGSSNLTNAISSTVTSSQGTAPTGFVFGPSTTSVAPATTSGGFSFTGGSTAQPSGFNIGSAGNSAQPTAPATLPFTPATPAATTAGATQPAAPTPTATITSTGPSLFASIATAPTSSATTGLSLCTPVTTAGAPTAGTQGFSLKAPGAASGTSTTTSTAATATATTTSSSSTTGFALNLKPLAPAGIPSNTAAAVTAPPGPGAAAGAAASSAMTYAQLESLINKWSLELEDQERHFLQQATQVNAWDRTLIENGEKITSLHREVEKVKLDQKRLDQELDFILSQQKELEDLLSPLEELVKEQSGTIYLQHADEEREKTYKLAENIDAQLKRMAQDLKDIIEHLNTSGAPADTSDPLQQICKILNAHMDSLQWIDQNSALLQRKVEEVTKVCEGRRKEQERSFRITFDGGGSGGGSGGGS
Put plainly: co-localisation by fluorescence microscopy of co-transfected cells.

Assay [2] addresses T3, endogenous Nup62. Put plainly: co-IP, western blot. The text has this:
RanGTP and importin-α interact with H1-8 and H8-19, respectively. FG-Nups bind to two regions of KPNB1, H5-7 and H14-16. FIG. 21B) Lysates from HEK293T cells expressing GFP, GFP-KPNB1 full-length (FL), N-terminal fragments of KPNB1 (H1-9 . . . H1) or the C-terminal fragment of KPNB1 (H10-19) were subjected to immunoprecipitation with GFP-Trap magnetic beads. Whole cell lysates (input) and immunoprecipitates (IP) were subjected to western blot analysis using indicated antibodies. KPNB1 H1-8, the smallest fully active KPNB1 fragment in reducing TDP-43 aggregation, strongly interacts with FG-Nups and Ran, and weakly with importin-al in comparison with full-length KPNB1. FIG. 21C) (Top) Schematic domain structure of KPNB1 H1-8^mNIS harboring four missense mutations (1178A, F217A, Y255A, I263R) in the nucleoporin-interacting site (NIS). (Bottom) Lysates from HEK293T cells expressing GFP, GFP-KPNB1 H1-8^WT or H1-8^mNIS were subjected to immunoprecipitation with GFP-Trap magnetic beads. Whole cell lysates (input) and immunoprecipitates (IP) were subjected to western blot analysis using indicated antibodies. […] Hoechst staining was used to outline nuclei. Scale bar: 5 μm. […] FIG. 21G) Quantification of the percentage of cells with cytoplasmic GR aggregates positive for endogenous TDP-43.

A further assay concerns the target T6, GFP-Nup98 (UniProt P52948 1-880).
T6 construct: Bought plasmid; not shown: GFP tag
T6 sequence (looked up): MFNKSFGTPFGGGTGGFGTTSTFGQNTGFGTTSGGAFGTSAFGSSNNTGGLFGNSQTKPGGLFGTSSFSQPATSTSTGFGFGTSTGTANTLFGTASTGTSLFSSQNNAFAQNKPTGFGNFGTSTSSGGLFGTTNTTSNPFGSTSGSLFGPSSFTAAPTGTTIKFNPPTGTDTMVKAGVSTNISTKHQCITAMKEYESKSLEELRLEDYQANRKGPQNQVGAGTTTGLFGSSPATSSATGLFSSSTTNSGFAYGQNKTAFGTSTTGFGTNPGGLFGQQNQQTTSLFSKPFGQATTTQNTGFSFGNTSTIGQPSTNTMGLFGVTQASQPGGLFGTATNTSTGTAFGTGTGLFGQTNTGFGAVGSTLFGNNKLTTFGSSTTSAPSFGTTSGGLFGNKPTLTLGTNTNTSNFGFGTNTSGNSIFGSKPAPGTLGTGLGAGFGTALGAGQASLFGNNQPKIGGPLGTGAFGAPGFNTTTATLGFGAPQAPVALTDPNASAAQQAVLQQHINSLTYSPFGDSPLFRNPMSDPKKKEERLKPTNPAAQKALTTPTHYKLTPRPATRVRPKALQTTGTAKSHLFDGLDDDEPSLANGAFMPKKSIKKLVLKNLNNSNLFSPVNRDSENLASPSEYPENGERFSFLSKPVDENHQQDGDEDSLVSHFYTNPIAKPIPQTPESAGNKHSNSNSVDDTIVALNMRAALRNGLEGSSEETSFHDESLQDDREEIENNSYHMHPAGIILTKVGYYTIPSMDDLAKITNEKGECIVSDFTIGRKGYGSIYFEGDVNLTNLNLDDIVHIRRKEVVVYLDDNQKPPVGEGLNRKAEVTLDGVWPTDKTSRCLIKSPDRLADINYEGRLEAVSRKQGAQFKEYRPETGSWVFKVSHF
Put plainly: co-localisation by immunofluorescence in HEK293T cells (FIG. 35). The text has this: FIG. 35: Nup98 strongly associates with TDP-CTF^WT, but not TDP-CTF^VLIM-F and sTDP. […] Arrowheads point to co-aggregation. Hoechst staining was used to outline nuclei. Scale bar: 5 μm.

T4 sequence (Q14974 whole entry): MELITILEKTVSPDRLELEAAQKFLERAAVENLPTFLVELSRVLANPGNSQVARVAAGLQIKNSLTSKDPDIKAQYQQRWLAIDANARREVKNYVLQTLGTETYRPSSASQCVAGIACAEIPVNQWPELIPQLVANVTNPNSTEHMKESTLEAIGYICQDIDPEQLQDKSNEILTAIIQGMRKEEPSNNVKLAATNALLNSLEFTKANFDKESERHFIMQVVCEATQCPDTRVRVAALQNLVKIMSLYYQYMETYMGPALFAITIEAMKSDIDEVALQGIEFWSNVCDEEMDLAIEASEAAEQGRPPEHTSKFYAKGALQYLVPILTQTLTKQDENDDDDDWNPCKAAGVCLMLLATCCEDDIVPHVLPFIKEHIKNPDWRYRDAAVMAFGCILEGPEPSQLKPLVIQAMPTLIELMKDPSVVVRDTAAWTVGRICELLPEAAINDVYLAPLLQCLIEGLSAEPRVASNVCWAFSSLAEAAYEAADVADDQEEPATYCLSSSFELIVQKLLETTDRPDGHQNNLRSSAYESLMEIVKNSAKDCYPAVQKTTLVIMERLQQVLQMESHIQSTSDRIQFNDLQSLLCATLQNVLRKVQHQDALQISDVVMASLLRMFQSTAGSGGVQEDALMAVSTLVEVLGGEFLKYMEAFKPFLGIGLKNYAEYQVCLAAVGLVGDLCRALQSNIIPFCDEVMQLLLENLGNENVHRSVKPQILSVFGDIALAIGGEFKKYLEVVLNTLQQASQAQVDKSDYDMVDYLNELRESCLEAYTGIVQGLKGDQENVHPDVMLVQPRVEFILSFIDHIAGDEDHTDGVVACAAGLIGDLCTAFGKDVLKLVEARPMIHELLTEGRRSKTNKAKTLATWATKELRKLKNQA
T1 sequence (Q14974 whole entry): as above

B1: GFP-TDP-PrLD (other, human)
chain: GGGSGGGSGGGSRFGGNPGGFGNQGGFGNSRGGGAGLGNNQGSNMGGGMNFGAFSINPAMMAAAQAALQSSWGMMGMLASQQNQSGPSGNNQNQGNMQREPNQAFGSGNNSYSGSNSGAAIGWGSASNAGSGSGFNGGFGSSMDSKSSGWGM
notes: also called GFP-TDP-43 PrLD; TDP-PrLD (aa275-414); not shown: GFP/EGFP tag (pEGFP-C1, Clontech)
For B1, the binding result with Untagged KPNB1 is on record as “binds”; with endogenous Ran it was “no binding”; with endogenous Nup98, “binds”; in the assay with endogenous Nup62 [1] it was “binds”; with endogenous KPNB1, “binds”.

B2: GFP-TDP-43^mNLS 1-265 (other, human)
chain: GGGSGGGSGGGSMSEYIRVTEDENDEPIEIPSEDDGTVLLSTVTAQFPGACGLRYRNPVSQCMRGVRLVEGILHAPDAGWGNLVYVVNYPKDNAAAMDETDASSAVAVAAAVQKTSDLIVLGLPWKTTEQDLKEYFSTFGEVLMVQVKKDLKTGHSKGFGFVRFTEYETQVKVMSQRHMIDGRWCDCKLPNSKQSQDEPLRSRKVFVGRCTEDMTEDELREFFSQYGDVMDVFIPKPFRAFAFVTFADDQIAQSLCGEDLIIKGISVHISNAEPKHN
notes: not shown: GFP/EGFP tag (pEGFP-C1, Clontech)
Turning to B2, the binding result with Nup62-mCherry was “no binding”.

B3: GFP-KPNB1 H1-8^mNIS (receptor)
chain: GGGSGGGSGGGSMELITILEKTVSPDRLELEAAQKFLERAAVENLPTFLVELSRVLANPGNSQVARVAAGLQIKNSLTSKDPDIKAQYQQRWLAIDANARREVKNYVLQTLGTETYRPSSASQCVAGIACAEIPVNQWPELIPQLVANVTNPNSTEHMKESTLEAIGYICQDIDPEQLQDKSNEILTAIAQGMRKEEPSNNVKLAATNALLNSLEFTKANFDKESERHAIMQVVCEATQCPDTRVRVAALQNLVKIMSLYYQYMETAMGPALFARTIEAMKSDIDEVALQGIEFWSNVCDEEMDLAIEASEAAEQGRPPEHTSKFYAKGALQYLVPILTQTLTKQDENDDDDDWNPCKAAGVCLMLLATCCED
notes: also called KPNB1-mNIS; not shown: GFP/EGFP tag (pEGFP-C1, Clontech)
Consider B3, for which the binding result with endogenous Nup62 [2] is “no binding”.

B4: mCherry-TDP-CTF^VLIM-F (other)
chain: GGGSGGGSGGGSREFFSQYGDVMDVFIPKPFRAFAFVTFADDQIAQSLCGEDLIIKGISVHISNAEPKHNSNRQFERSGRFGGNPGGFGNQGGFGNSRGGGAGFGNNQGSNFGGGFNFGAFSFNPAMMAAAQAALQSSWGMMGMLASQQNQSGPSGNNQNQGNFQREPNQAFGSGNNSYSGSNSGAAFGWGSASNAGSGSGFNGGFGSSFDSKSSGWF
notes: also called mCherry-tagged TDP-CTF^VLIM-F; not shown: mCherry tag (mCherry-C1, Clontech)
As to B4, the binding result with GFP-Nup98 is recorded as “no binding”.
